This is an account of results in publication doi:10.1101/2023.06.15.545061.

This assay deals with biotinylated 10-mer C-terminal PBM peptide of DGKζ (human) (UniProt Q13574).
Chain of biotinylated 10-mer C-terminal PBM peptide of DGKζ (human) (Q13574 whole entry, looked up, tested part not stated): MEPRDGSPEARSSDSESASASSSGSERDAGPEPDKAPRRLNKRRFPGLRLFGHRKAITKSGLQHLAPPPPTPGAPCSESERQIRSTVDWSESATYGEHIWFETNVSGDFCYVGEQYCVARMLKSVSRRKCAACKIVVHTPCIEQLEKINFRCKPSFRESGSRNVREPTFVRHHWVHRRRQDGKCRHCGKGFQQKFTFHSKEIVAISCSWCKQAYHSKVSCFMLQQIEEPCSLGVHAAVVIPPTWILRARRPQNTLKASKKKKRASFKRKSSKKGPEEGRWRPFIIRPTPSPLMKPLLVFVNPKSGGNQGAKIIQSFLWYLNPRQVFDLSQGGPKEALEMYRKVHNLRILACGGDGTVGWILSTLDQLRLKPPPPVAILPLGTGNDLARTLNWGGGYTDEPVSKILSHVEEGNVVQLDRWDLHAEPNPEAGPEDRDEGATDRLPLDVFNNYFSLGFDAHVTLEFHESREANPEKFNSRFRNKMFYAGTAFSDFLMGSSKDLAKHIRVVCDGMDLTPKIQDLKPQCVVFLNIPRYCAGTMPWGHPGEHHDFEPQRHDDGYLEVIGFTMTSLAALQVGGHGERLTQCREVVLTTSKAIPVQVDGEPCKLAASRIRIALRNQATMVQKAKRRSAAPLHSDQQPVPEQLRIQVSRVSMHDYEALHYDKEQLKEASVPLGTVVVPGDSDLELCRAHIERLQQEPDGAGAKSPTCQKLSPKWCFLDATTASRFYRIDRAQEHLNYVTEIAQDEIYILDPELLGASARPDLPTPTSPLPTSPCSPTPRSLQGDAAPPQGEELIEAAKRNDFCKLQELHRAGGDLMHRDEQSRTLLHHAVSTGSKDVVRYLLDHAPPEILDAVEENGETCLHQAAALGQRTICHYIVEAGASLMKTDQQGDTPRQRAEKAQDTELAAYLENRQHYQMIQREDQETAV

Usually Kd stands for the concentration at which binding is half-saturated. A high value points to lower affinity. The substance SCRIB yielded a Kd of 24 µM.
